Reference: patent US7795390B2, “Biological substance nesfatin and its related substances and uses thereof” (Teijin Pharma Limited, priority 2005, dated 2010)

How the values were obtained:
Wistar rats = test: Intraventricular continuous administration of nesfatin-1 by osmotic pump, food intake and body weight; type: in vivo, rat
Description: The administration of nesfatin-1 was carried out into the ventricle by an osmotic pump for 10 consecutive days. Among 8 week-old male Wistar rats (purchased from Nippon SLC), those individuals weighing 200-250 g were used. The rats received intraperitoneal administration of 40 mg/kg body weight of pentobarbital sodium for anesthesia. After the hair was removed from the head, they were fixed in a brain stereotaxic apparatus (David Kopf Instruments, Model 962) and the scalp was incised and a 23G needle (guide cannula) was implanted so that the tip reaches the third ventricle (2.5 mm behind the bregma, 9.5 mm from the surface). One week after implanting the guide cannula, the animals were subjected to the experiment. The osmotic pump used was Alzet's Model 2002. Nesfatin-1 (nesfatin-1 administration group) dissolved in physiological saline that was filter-sterilized with a 0.22 μm Millex GV filter (Millpore Co. Ltd.), or sterilized physiological saline alone (control group) were injected into the osmotic pump immediately before use, and were primed in sterilized physiological saline from the day before use. The osmotic pump to which each sample was connected to a tube connected to the injection cannula, and through the guide cannula previously implanted the injection cannula was fixed so that the tip of the cannula reaches the third ventricle of the rat. In this form of use, the sample is injected to the third ventricle at a flow rate of 12 μl per 24 hours, and in the nesfatin-1 administration group, it is equivalent to 5 pmol of nesfatin-1 per day administered to the ventricle. […] The measurement of the amount of food intake started from the day after the cannula and the osmotic pump were implanted, and the weight of the residual food was measured at 9 a.m. every day, and by determining the difference from the weight of the food on the previous day, the amount of food intake of the day (24 hours) was calculated. From day 6 after the start of administration, body weight was measured at the time of measuring the amount of food intake, and changes in body weight were also recorded.

Zucker fa/fa rats = test: nesfatin-1 administration into the third ventricle of Zucker fa/fa rats, food intake; type: in vivo, rat; conditions: recombinant mouse nesfatin-1 5 pmol
Description: As rats, 8 week-old male Zucker fa/fa (Zucker) rats and Zucker +/+(Lean) rats as the control animal were purchased from Nippon Charles River, and were housed in a cycle of 12 hours of the light period from 6 a.m. to 6 p.m. and 12 hours of the dark period from 6 p.m. to 6 a.m. the next morning and fed a powder food (Nippon Clea, CE-2), and kept at 22° C., and throughout the experiment period, a similar condition was continued in housing. After preliminary housing of the purchased rats for over one week, individuals weighing 200-250 g were selected from among 9 to 10 week-old individuals.
The sample used for administration was one in which the recombinant mouse nesfatin-1 prepared in Working Example 16 was dissolved to 5 pmol in 5 μl of PBS, and as the control sample physiological saline (Saline) was used. Five μl of the samples prepared were administered into the third ventricle of each rat for the group of five each of Zucker rats and the Lean rats per group (the Zucker/nesfatin-1 group, the Lean/nesfatin-1 group, the Zucker/Saline group, the Lean/Saline group). […]
After intraventricular administration, the amount of food intake was determined by measuring the amount decreased of the powder food for each rat during 0-1 hour, 1-3 hours and 3-6 hours. […]

ICR mice = test: Intraperitoneal administration of nesfatin-1 to ICR mice, food intake; type: in vivo, mouse; conditions: 0-3 hours
Description: The experimental animal was 7 week-old male ICR mice purchased from Japan SLC, Inc., and were housed after purchase in a cycle of 12 hours of the light period from 6 a.m. to 6 p.m. and 12 hours of the dark period from 6 p.m. to 6 a.m. the next morning with free access to a pellet food (Nippon Clea, CE-2), kept at 22° C., and housing was continued in a similar condition during the experiment period. The mice purchased were subjected to preliminary housing for over one week, individuals weighing 35-40 g were selected among 8 to 9 week-old individuals and were used in the experiment.
(§1) The sample used in the administration was the recombinant mouse nesfatin-1 prepared in Working Example 16 dissolved in 200 μl of physiological saline so as to contain 2 nmol, 10 nmol or 50 nmol, and as the control sample, physiological saline (Saline) alone was used. Using a tuberculin syringe equipped with a 25G needle, 200 μl each of the sample was administered once into the abdominal cavity of each mouse (5 animals per group), and the time of administration was immediately before the start (6 p.m.) of the dark period.
(§2) Each mouse that received administration was placed in an individual cage, and during 0-3 hours after the administration the weight decreased of the pellet food was measured to determine the amount of food intake. For testing of significant difference, analysis of variance was used.

Agouti-yellow mice = test: Intraperitoneal administration of nesfatin-1 to Agouti-yellow mice, food intake; type: in vivo, mouse; conditions: nesfatin-1 (10 pmol) ip, 0-3 hours
Text: In the experiment on the animal model of obesity, C57BL/6J mice were used as the control group and Agouti-yellow mice were used as the animal model of obesity, and these animals were purchased from Nippon Charles River (Jackson Lab.). The housing condition and the week age of the mice used were similar to those for the ICR mice, whereas individuals weighing 25-28 g for the control group mice and individuals weighing 31-38 g for the Agouti-yellow mice were selected and used. […] Other conditions were similar to those in the above.
as §2

mice = test: Intraperitoneal and subcutaneous administration of nesfatin-1 to mice, food intake; type: in vivo, mouse
Description: as §1, with “contain” for “contain 2 nmol,”, “10” for “10 nmol or 50”, “the samples” for “the sample”, “cavity or the hypodermis of the back” for “cavity”, “each mouse,” for “each mouse (5 animals per group),”, “period. Other conditions were similar to those in Working Example 18.” for “period.”

[1] = 5 pmol per day, osmotic pump, third ventricle, 10 consecutive days, vs saline

B1: nesfatin-1: 82-residue peptide, amino acid Nos. 25 to 106 of nesfatin (SEQ ID NO: 15), solid-phase synthesis (peptide, listed as Rattus norvegicus)
chain: VPIDVDKTKVHNVEPVESARIEPPDTGLYYDEYLKQVIEVLETDPHFREKLQKADIEEIRSGRLSQELDLVSHKVRTRLDEL
amount of food intake of the day (24 hours) (Wistar rats; [1]): a decrease in the amount of food intake was noted from day 1
rate of increase in body weight (Wistar rats; [1]): significantly declined
food intake and/or body weight gain (Wistar rats; recombinant highly purified nesfatin-1 (Working Example 16), intraventricular as in Working Example 13): the effect of suppressing food intake and/or suppressing body weight gain was noted
amount of food intake (Zucker fa/fa rats; 0-1 hour and 1-3 hours, P<0.001 vs Saline): significant reduction
amount of food intake (Zucker fa/fa rats; 3-6 hours, P<0.05): significant reduction
amount of food intake (ICR mice; recombinant mouse nesfatin-1 2 nmol per mouse ip, vs Saline): decreases in the amount of food intake
amount of food intake (ICR mice; recombinant mouse nesfatin-1 10 nmol per mouse ip, p<0.05): statistically significant decreases in the amount of food intake
amount of food intake (ICR mice; recombinant mouse nesfatin-1 50 nmol per mouse ip, p<0.005): statistically significant decreases in the amount of food intake
amount of food intake (Agouti-yellow mice): significantly decreased
amount of food intake (mice; 10 nmol intraperitoneally (ip), 0-3 hours, P<0.05 vs saline): statistically significant decrease
amount of food intake (mice; 10 nmol intraperitoneally (ip), 0-14 hours): the decrease in the amount of food intake was not significant
amount of food intake (mice; 10 nmol subcutaneously (sc), 0-3 hours): tended to decrease
amount of food intake (mice; 10 nmol subcutaneously (sc), 0-14 hours, P<0.005 vs saline): the decrease was significant
